The assay addresses Yn-ABHD5 (UniProt Q9DBL9). As to the kind of experiment: split reporter.

A value given as a limit tells only on which side of the number the result lay.

Chain of Yn-ABHD5 (Q9DBL9 whole entry): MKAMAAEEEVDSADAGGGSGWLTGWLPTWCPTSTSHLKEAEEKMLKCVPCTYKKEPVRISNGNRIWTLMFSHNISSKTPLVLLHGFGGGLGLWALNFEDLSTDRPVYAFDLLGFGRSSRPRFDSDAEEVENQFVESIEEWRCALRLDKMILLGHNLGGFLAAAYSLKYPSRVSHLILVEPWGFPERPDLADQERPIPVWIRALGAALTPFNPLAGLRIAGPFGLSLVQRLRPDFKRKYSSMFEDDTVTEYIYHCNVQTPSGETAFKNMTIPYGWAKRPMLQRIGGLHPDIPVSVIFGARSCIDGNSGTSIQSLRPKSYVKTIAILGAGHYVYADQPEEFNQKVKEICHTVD

For “PNPLA3-Yc (from UniProt Q91WW7 1-413) (natural protein)”, the percent of transfected cells with BiFC was above 90%.

These data come from article PMC6730670.
